Measurements taken from patent publication US8114412B2, “T. cruzi-derived neurotrophic agents and methods of use therefor” (priority 1999, dated 2012).
“Also recorded” adds a separate entry of the source.

B1: TS: T. cruzi trans-sialidase purified by immuno-affinity chromatography from supernatants of infected Vero cells (SEQ ID NO:2, SEQ ID NO:34) (protein, listed as Trypanosoma cruzi)
chain: MVAIADARYETSSENSLIDTVAKYSVDDGETWETQIAIKNSRVSSVSRVVDPTVIVKGNKLYVLVGSYYSSRSYWSSHGDARDWDILLAVGEVTKSTAGGKITASIKWGSPVSLKKFFPAEMEGMHTNQFLGGAGVAIVASNGNLVYPVQVTNKRKQVFSKIFYSEDDGKTWKFGKGRSDFGCSEPVALEWEGKLIINTRVDWKRRLVYESSDMEKPWVEAVGTVSRVWGPSPKSNQPGSQTSFTAVTIEGMRVMLFTHPLNFKGRCVRDRLNLWLTDNQRIYNVGQVSIGDENSAYSSVLYKDDKLYCLHEINTDEVYSLVFARLVGELRIIKSVLRSWKNWTATCPAFAPLLIQPLRRQRVVVVPLSPRLVLLAFCRQRLPKRMGGSYRCVNASTANAERVRNGLKFAGVGGGALWPVSQQGQNQRYRFANHAFTLVASVTIHEAPRAASPLLGASLDSSGGKKLLGLSYDEKHQWQPIYGSTPVTPTGSWETGKRYHLVLTMANKIGSVYIDGELLEGSGQTVVPDGRTPDISHFYVGGYKRSDMPTISHVTVNNVLLYNRRQLNTEEIRTLFLSQDLIGTEAHMDSSSDSSAHSTPSTPADSSAHSTPSTPVDSSAHSTPSTPADSSAHGTPSTPVDSSAHGTPSTPADSSAHGTPSTPVDSSAHSTPSTPVDSSAHSTPSTPVDSSAHGAPSTPADSSAHGTPSTPVDSSAHGTPSTPADSSAHSTPSTPADSSAHSTPSTPADSSAHSTPSTPVDSSAHGTPSTPADSSAHSTPSTPADSSAHGTPSTPVDSSAHSTPSTPVDSSAHGTPSTPVDSSAHSTPSTPVDSSAHGTPSTPVDSSAHSTPSTPADSSAHSTPSTPADSSAHGTPSTPVDSSAHSTPSTPADSSAHSTPSTPVDSSAHSTPSTPADSSAHGTPSTPVDSSAHGTPSTPADSSAHSTPSTPADSSAHSTPSTPADSSAHSTPSTPVDSSAHSTPSTPADSSAHSTPSTPADSSAHSTPSTPADSSAHSTPSTPVDSSAHSTPSTPADSSAHGTPSTPADSSAHSTPSTPVDSSAHSTPSTPADSSAHGTPSTPADSSAHSTPSTPADSSAHGTPSTPADSSAHSTPSTPAGSSANGTVLILPDGAALSTFSGGGLLLCACALLLHVFFMAVF
B2: TS-F: recombinant full catalytic domain of TS, amino acid residues 33-666, His-tagged, expressed in E. coli (protein, listed as Trypanosoma cruzi)
chain: ETQIAIKNSRVSSVSRVVDPTVIVKGNKLYVLVGSYYSSRSYWSSHGDARDWDILLAVGEVTKSTAGGKITASIKWGSPVSLKKFFPAEMEGMHTNQFLGGAGVAIVASNGNLVYPVQVTNKRKQVFSKIFYSEDDGKTWKFGKGRSDFGCSEPVALEWEGKLIINTRVDWKRRLVYESSDMEKPWVEAVGTVSRVWGPSPKSNQPGSQTSFTAVTIEGMRVMLFTHPLNFKGRCVRDRLNLWLTDNQRIYNVGQVSIGDENSAYSSVLYKDDKLYCLHEINTDEVYSLVFARLVGELRIIKSVLRSWKNWTATCPAFAPLLIQPLRRQRVVVVPLSPRLVLLAFCRQRLPKRMGGSYRCVNASTANAERVRNGLKFAGVGGGALWPVSQQGQNQRYRFANHAFTLVASVTIHEAPRAASPLLGASLDSSGGKKLLGLSYDEKHQWQPIYGSTPVTPTGSWETGKRYHLVLTMANKIGSVYIDGELLEGSGQTVVPDGRTPDISHFYVGGYKRSDMPTISHVTVNNVLLYNRRQLNTEEIRTLFLSQDLIGTEAHMDSSSDSSAHSTPSTPADSSAHSTPSTPVDSSAHSTPSTPADSSAHGTPSTPVDSSAHGTPSTPADSSAHGTPSTPVDS
modifications: His tag
notes: recombinant full catalytic domain of TS, amino acid residues 33-666, His-tagged, expressed in E. coli

Assays:
[1] = system: primary rat cerebellar granule neurons; assay: Survival of primary cerebellar granule neurons in low K+ medium; type: cell-based; conditions: serum-free BME 5 mM KCl, TS 100 ng/ml, 24 hours, FDA staining
Description: Cultures enriched in granule neurons were obtained from the cerebellum of 8-days-old Wistar rats (Charles River, Wilmington, Mass.) as described by D'Mello et al., J. Neurosci 17:1548-1560 (1997). Cells were plated in basal Eagle medium (BME, Gibco BRL, Gaithersburg, Md.), supplemented with 10% FCS, 25 mM KCl and 2 mM glutamine (Gibso BRL) on dishes coated with poly-L-lysine and laminin. Cytosine arabinofumoside (10 μM) was added to the culture medium 18-22 hrs after plating to prevent replication of non-neuronal cells. Replacement of culture medium with serum-free BME medium was performed 7-10 days after plating. Cells were maintained in serum-free BME with 5 mM KCl for 3 hrs and challenged with different stimuli. Neuronal survival was assayed after 24 hours by staining with 10 μg/ml fluorescein diacetate (FDA, Sigma) (Jones and Senft, 1985) and with DAPI (see above). Chicken dorsal root ganglia neurons were prepared as described (Cox and Dunlap, J. Gen. Physiol 104:311-336 (1994)).

Bcl-2 mRNA in PC12 cells = assay: RT-PCR of Bcl-2 gene transcripts in PC12 cells; type: cell-based, rat
Description: Total RNA was extracted from PC12 cells by the acid guanidinum isothiocyanate method (Chomchinski, P., et al., Biotechniques 15: 532-535 (1993)) using TRI-reagent (Molecular Research Center, Inc.). cDNA synthesis was performed according to the instruction of the manufacturer (Gibco-BRL). Reverse transcription reactions were carried out for 50 minutes at 42° C. and were heated to 70° C. for 15 minutes to terminate the reaction using a MiniCycler (MJ Research). Samples were cooled to 4° C. and stored at −20° C. until use.
PCR reactions were performed in 50 μl containing 1.5 μl of template DNA (corresponding to cDNA synthesized from 100 ng of total RNA), 1×PCR buffer, 100 μM of deoxynucleotides, 2.5 mM MgCl2, 10 mM DTT, 10 pM of Bcl-2 primers, and 2 U of Taq DNA polymerase (Gibco-BRL). The synthetic DNA primers for the rat Bcl-2 were: 5′-[…]-3′ (SEQ ID NO:8) and 5′-[…]-3′(SEQ ID NO:9) to give a PCR product of 566 bp. The sequences for synthetic GAPDH DNA primers (Wong, H., et al., Anal. Biochem. 223: 251-258 (1994)) were: 5′-[…]-3′ (SEQ ID NO:10) and 5′-[…]-3′ (SEQ ID NO:11) giving a PCR produce of 306 base pairs. Amplifications were carried out in MiniCycler (MJ Research) using following conditions: 98° C. for 5 minutes (initial heat denaturation), 3 cycles of 94° C. for 1 minute, 63° C. for 1 minute, 72° C. for 1.5 minutes; 3 cycles of 94° C. for 1 minutes, 60° C. for 1 minute, 72° C. for 1.5 minutes, followed by 72° C. for 10 minutes. Primers for GAPDH (10 pM) were added at cycle 7 by the “primer-dropping” method. Aliquots of PCR reaction products were separated by electrophoresis in 2% agarose gels (Ultrapure, Gibco-BRL), containing 0.2 μg/ml ethidium bromide. Gels were analyzed by computerized densitometric scanning using Gel doc 1000 (Bio Rad) and Molecular Analyst Software, version 2.1.

DS-1 B-lymphoma cells = assay: Bioassay for IL-6 with IL-6 dependent DS-1 cells; type: cell-based, human; conditions: conditioned media of PBMC or T-24 cells (TS 1 μg/ml, 24 hr) diluted into IL-6 free media; or TS 1 μg/ml directly
Description: Bioassay for IL-6 was performed using IL-6 dependent human DS-1 cells (Bock et al., Cytokine 5: 480-489 (1993), ATCC Accession No. CRL-11102). Briefly, 1×10^4 cells/well were plated in 96-well plates and incubated for 24 hrs in IL-6-free medium (10% FCS in RPMI) containing several dilutions of TS-conditioned media or exogenous rIL-6. The cultures were pulsed with 0.5 μCi ^3H-thymidine for 4 hrs and harvested to determine radioactivity incorporation using a microplate scintillation instrument (Packard). In some studies, a neutralizing anti-IL-6 rabbit IgG or normal rabbit IgG (Endogen) was added to the dilutions of TS-conditioned prior to assaying for growth-stimulation of DS-1 cells. TS conditioned media was prepared by incubating PBMC or T-24 cells for 24 hr in 10% FCS/RPMI without (CM) or with (TS/CM) TS at 1 μg/ml. Supernatants were centrifuged at 1,000×g to remove cell debris and were kept frozen at −20° C. until use.

normal human neutrophils = assay: IL-6 production by normal human neutrophils; type: cell-based
Trans-sialidase assay = type: biochemical
Description: The trans-sialidase assay was performed as described (Scudder et al., J. Biol. Chem. 268:9886-9891 (1993)) with slight modifications. Various amounts of intact enzyme or enzyme fragments were added to 50 mM PBS, Ph 7.2, containing 15% fetal calf serum and […] of [^14C]N-acetyllactosamine (4×10^5 dpm), 50 μg BSA and 0.02% NaN3 in a volume of 60 μl. After incubation for a predetermined amount of time at room temperature, the reaction mixture was diluted to 1.0 ml with distilled water and applied to a column containing 1.0 ml Q-Sepharose equilibrated with water. Sialylated product was eluted with 1 M NaCi and quantified by scintillation counting.
TS enzymatic activity was measured by the sialylation of the acceptor ^14C-labeled N-acetyllactosamine on anion exchange resins (Scudder, P. et. al., J. Biol. Chem. 268:9886-9891 (1993)). Recombinant TSA-1, was expressed on insect sf9 cells and purified from serum-free medium by ion exchange chromatography (monoQ) and preparative SDS-PAGE (Wrightsman, R. A. et al., J. Immunol., 153:3148-3154 (1994).

Molecule	protection of primary cerebellar granule neurons from death in low K+ medium [1]	bcl-2 gene expression in PC12 cells (Bcl-2 mRNA in PC12 cells; TS 2.5 ng/ml, CNTF 50 ng/ml, alone or combined, 17 hours)	expression of Bcl-2 mRNA in PC12 cells (Bcl-2 mRNA in PC12 cells; TS 100 and 200 ng/ml, 17 hours serum-free)	proliferation/growth of IL-6-dependent DS-1 cells (DS-1 B-lymphoma cells)	IL-6 production by normal human neutrophils (normal human neutrophils)	trans-sialidase enzymatic activity (Trans-sialidase assay)
B1	effectively protected the neurons from death; also recorded: increased number of viable cells	did not induce bcl-2 gene expression individually	dramatically increased Bcl-2 mRNA; also recorded: induces the expression of Bcl-2 mRNA	did not restore growth of the DS-1 cells; also recorded: did not induce proliferation	did not produce detectable IL-6	
B2						enzymatically active
